From publication PMC10397247
One block for each binder: values may come before it.

How the values were obtained:
Test in all cases: two-hybrid library CCmax;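 note: natural log of median RNA to DNA barcode read ratio; higher means stronger binding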
[1] = biological target: T1, 4H341-AA
T1 chain: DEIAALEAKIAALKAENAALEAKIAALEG

[2] = biological target: T2, 4H3414-AA; conditions: mean of both orientations
T2 chain: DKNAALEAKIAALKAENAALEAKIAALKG

[3] = biological target: T3, 4H3449-AA; conditions: mean of both orientations
T3 chain: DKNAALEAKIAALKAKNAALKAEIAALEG

[4] = biological target: T4, 4H3595-AA; conditions: mean of both orientations
T4 chain: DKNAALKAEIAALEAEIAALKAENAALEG

[5] = biological target: T5, 4H3619-AA; conditions: mean of both orientations
T5 chain: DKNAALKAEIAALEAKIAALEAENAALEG

[6] = biological target: T6, 4H3629-AA; conditions: mean of both orientations
T6 chain: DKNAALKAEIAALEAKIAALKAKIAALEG

[7] = biological target: T7, 4H3777-AA; conditions: mean of both orientations
T7 chain: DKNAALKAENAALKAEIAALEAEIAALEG

[8] = biological target: T8, 4H3782-AA; conditions: mean of both orientations
T8 chain: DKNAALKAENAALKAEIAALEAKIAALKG

[9] = biological target: T9, 4H380-AA; conditions: mean of both orientations
T9 chain: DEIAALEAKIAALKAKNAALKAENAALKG

[10] = biological target: T10, 4H3915-AA; conditions: mean of both orientations
T10 chain: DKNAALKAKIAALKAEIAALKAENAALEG

[11] = biological target: T11, 4H3939-AA; conditions: mean of both orientations
T11 chain: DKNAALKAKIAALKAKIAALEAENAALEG

[12] = biological target: T12, 4H3969-AA
T12 chain: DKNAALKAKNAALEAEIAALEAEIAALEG

[13] = biological target: T13, 4H3974-AA; conditions: mean of both orientations
T13 chain: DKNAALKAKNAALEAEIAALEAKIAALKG

[14] = biological target: T14, 4H432-AA; conditions: mean of both orientations
T14 chain: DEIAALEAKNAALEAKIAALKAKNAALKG

[15] = biological target: T15, 4H446-AA; conditions: mean of both orientations
T15 chain: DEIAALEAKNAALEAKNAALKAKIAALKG

[16] = biological target: T16, 4H464-AA; conditions: mean of both orientations
T16 chain: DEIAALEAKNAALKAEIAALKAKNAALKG

[17] = biological target: T17, 4H483-AA; conditions: mean of both orientations
T17 chain: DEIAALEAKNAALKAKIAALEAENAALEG

[18] = biological target: T18, 4H63-AA; conditions: mean of both orientations
T18 chain: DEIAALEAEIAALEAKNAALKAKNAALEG

[19] = biological target: T19, 4H3015-AA
T19 chain: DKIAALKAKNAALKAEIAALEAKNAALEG

[20] = biological target: T20, 4H3073-AA; conditions: mean of both orientations
T20 chain: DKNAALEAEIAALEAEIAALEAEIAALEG

[21] = biological target: T21, 4H3438-AA; conditions: mean of both orientations
T21 chain: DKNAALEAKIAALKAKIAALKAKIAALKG

[22] = biological target: T22, 4H347-AA; conditions: mean of both orientations
T22 chain: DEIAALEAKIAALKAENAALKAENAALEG

[23] = biological target: T23, 4H406-AA; conditions: mean of both orientations
T23 chain: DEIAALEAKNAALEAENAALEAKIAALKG

[24] = biological target: T24, 4H452-AA; conditions: mean of both orientations
T24 chain: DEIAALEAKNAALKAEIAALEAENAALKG

[25] = biological target: T25, 4H56-AA; conditions: mean of both orientations
T25 chain: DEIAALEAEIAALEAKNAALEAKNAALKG

[26] = biological target: T26, 4H_APH; conditions: mean of both orientations
T26 chain: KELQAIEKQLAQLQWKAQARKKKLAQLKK

[27] = biological target: T27, 4H_BCR; conditions: mean of both orientations
T27 chain: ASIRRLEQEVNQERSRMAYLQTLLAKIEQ

[28] = biological target: 4H_GCN4
[29] = biological target: GCN2_T; conditions: mean of both orientations
[30] = biological target: T28, 4H3133-AA
T28 chain: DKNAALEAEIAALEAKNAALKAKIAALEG

[31] = biological target: T29, 4H3162-AA; conditions: mean of both orientations
T29 chain: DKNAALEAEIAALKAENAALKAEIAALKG

[32] = biological target: T30, 4H32-AA; conditions: mean of both orientations
T30 chain: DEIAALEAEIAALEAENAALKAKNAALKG

[33] = biological target: T31, 4H3378-AA; conditions: mean of both orientations
T31 chain: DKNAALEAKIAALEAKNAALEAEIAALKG

[34] = biological target: T32, 4H340-AA; conditions: mean of both orientations
T32 chain: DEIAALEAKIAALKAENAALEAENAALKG

[35] = biological target: T33, 4H3413-AA; conditions: mean of both orientations
T33 chain: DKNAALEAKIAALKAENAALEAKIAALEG

[36] = biological target: T34, 4H3588-AA; conditions: mean of both orientations
T34 chain: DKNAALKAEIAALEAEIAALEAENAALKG

[37] = biological target: T35, 4H3606-AA; conditions: mean of both orientations
T35 chain: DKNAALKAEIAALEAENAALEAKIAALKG

[38] = biological target: T36, 4H3631-AA; conditions: mean of both orientations
T36 chain: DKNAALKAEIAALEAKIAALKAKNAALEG

[39] = biological target: T37, 4H3697-AA; conditions: mean of both orientations
T37 chain: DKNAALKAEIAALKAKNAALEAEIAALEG

[40] = biological target: T38, 4H3718-AA; conditions: mean of both orientations
T38 chain: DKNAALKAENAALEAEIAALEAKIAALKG

[41] = biological target: T39, 4H384-AA; conditions: mean of both orientations
T39 chain: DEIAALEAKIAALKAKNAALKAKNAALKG

[42] = biological target: T40, 4H3865-AA; conditions: mean of both orientations
T40 chain: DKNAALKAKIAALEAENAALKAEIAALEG

[43] = biological target: T41, 4H697-AA; conditions: mean of both orientations
T41 chain: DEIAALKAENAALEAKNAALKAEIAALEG

[44] = biological target: T42, 4H982-AA; conditions: mean of both orientations
T42 chain: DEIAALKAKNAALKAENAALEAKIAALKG

Chain of 4H_GCN4 (chain, as listed by the source): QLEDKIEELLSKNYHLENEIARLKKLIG

interaction score [1]: 1.84 | interaction score [2]: 0.22 | interaction score [3]: 0.461 | interaction score [4]: -1.29 | interaction score [5]: -1.22 | interaction score [6]: 2.2 | interaction score [7]: -1.17 | interaction score [8]: 0.558 | interaction score [9]: -1.07 | interaction score [10]: -1.31 | interaction score [11]: -1.29 | interaction score [12]: 0.0125 | interaction score [13]: 0.589 | interaction score [14]: -1.21 | interaction score [15]: 0.795 | interaction score [16]: 0.352 | interaction score [17]: 0.738 | interaction score [18]: 1.74
Binder: DEIAALEAKIAALKAENAALEAKIAALEG [4H341-AA]

interaction score [19]: -1.16 | interaction score [20]: 0.065 | interaction score [21]: -1.63 | interaction score [22]: -1.96 | interaction score [23]: -0.891 | interaction score [24]: -1.36 | interaction score [25]: -1.59 | interaction score [26]: -2.92 | interaction score [27]: -1.81 | interaction score [28]: -1.28 | interaction score [29]: -1.44
Binder: DKIAALKAKNAALKAEIAALEAKNAALEG [4H3015-AA]

interaction score [30]: -0.726 | interaction score [31]: -1.24 | interaction score [32]: -1.83 | interaction score [33]: -1.1 | interaction score [34]: -0.539 | interaction score [35]: 1.97 | interaction score [36]: -1.47 | interaction score [37]: 1.29 | interaction score [38]: -0.654 | interaction score [39]: -0.244 | interaction score [40]: -0.85 | interaction score [41]: -1.58 | interaction score [42]: 0.466 | interaction score [43]: -1.6 | interaction score [44]: 0.112
Binder: DKNAALEAEIAALEAKNAALKAKIAALEG [4H3133-AA]
